Reference: the DeepSol protein solubility set

Test: soluble on expression in E. coli; label from the status in PepcDB or PDB records

Row | Sequence | soluble on expression in E. coli
1 | MTHQTHTIAESNNFIVLDKYIKAEPTGDSYQSESDLERELIQDLRNQGYEFISVKSQSAMLANVREQLQNLNGVVFNDSEWRRFTEQYLDNPSDGILDKTRKIHIDYICDFIFDDERLENIYLIDKKNLMRNKVQIIQQFEQAGSHANRYDVTILVNGLPLVQIELKKRGVAIREAFNQIHRYSKESFNSENSLFKYLQLFVISNGTDTRYFANTTKRDKNSFDFTMNWAKSDNTLIKDLKDFTATCFQKHTLLNVLVNYSVFDSSQTLLVMRPYQIAATERILWKIKSSFTAKNWSKPESGGYIWHTTGSGKTLTSFKAARLATELDFIDKVFFVVDRKDLDYQTMKEYQRFSPDSVNGSENTAGLKRNLDKDDNKIIVTTIQKLNNLMKAESDLPVYNQQVVFIFDECHRSQFGEAQKNLKKKFKRYYQFGFTGTPIFPENALGSETTASVFGRELHSYVITDAIRDEKVLKFKVDYNDVRPQFKSLETETDEKKLSAAENQQAFLHPMRIQEITQYILNNFRQKTHRTFPGSKGFNAMLAVSSVDAAKAYYATFKRLQEEAANKSATYKPLRIATIFSFAANEEQNAIGEISDETFDTSAMDSSAKEFLDAAIREYNSHFKTNFSTDSNGFQNYYRDLAQRVKNQDIDLLIVVGMFLTGFDAPTLNTLFVDKNLRYHGLMQAFSRTNRIYDATKTFGNIVTFRDLERSTIDAITLFGDKNTKNVVLEKSYTEYMEGFTDAATGEAKRGFMTVVSELEQRFPDPTSIESEKEKKDFVKLFGEYLRAENILQNYDEFATLKALQQIDLSDPVAVEKFKAEHYVDDEKFAELQTIRLPADRKIQDYRSAYNDIRDWQRREKEAEKKEKSTTDWDDVVFEVDLLKSQEINLDYILGLIFEHNRQNKGKGEMIEEVKRLIRSSLGNRAKEGLVVDFIQQTNLDDLPDKASIIDAFFTFAQREQQREAEALIKEENLNEDAAKRYIRTSLKREYATENGTELNETLPKLSPLNPQYKTKKQAVFQKIVSFIEKFKGVGGKI | soluble
2 | MTIDMRLRPPLQSWKSTAQFKEGTAYYPTRYGFPRPKSVGTQDIGDLLAEMDEADITWGVVMGRQSAPPHGIVPNEEISDFVRQHADRFVGFAGIDLRDIDKAVADLDGYARSDEFKGISIEPGAGFVPLYSDDPSLFPLYERAQELQLPLSITLSGYLSSMAGHPTSYGNPSPVATVARKFPRLKIVVSHAAWPNVMPMLEVAFLHDNVYVSPDLYMNHVHTPGAHEYINAAKFYLADRLLFGTAYPSRPLKESVAGFRQWDLDSELAEKILHRNAARLLGLELEHHHHHH | not soluble
3 | MTIDTDLDRTPAASSENPVEARRTQARAWFEGLRDRICAEIETLEREAPAELFPGEPATFTYKPWQRKTGAGGGVGGFLSNGRLFEKIGIHTSSANGKLTPEMAKNVPGDGSLDYVSTSISLIMHPRSPRVPTVHMNTRFLSTSQGWFGGGADLTPMLPEQRSQDAEDAVIFHTAMKHACDAHDPAYYDKFKPWADTYFFLPHRGVARGVGGIFFDYLNSGDFDRDFAFTRAVGSALLDVYPKIVRKRMIEPWTDAERAQQLACRGLYVEFNLLYDRGTMFGLQTGGNTETIMSSMPPLVSWSMAGDPLEHHHHHH | not soluble
4 | MTIHLISFASILHKQASLRNSHEAILSELEKYYTVKLIDYQDMDKLGSDDFKIIFIATGGVERLVIQHFERLPRPAILLADGMQNSLAAALEISTWLRGRGMKSEILHGELPSIIQRVHILYNNFRAQRSLFGKRIGVIGTPSSWLVASNVDYLLAKRRWGIEYIDIPLERVYEHFKQITDDQVGASCAAVASQALACREGTPEDLIKAMRLYRAIKRICEEEKLEALTLSCFKLIDQIDTTGCLALSLLNDDGIMAGCEGDLQSIFTLLAVKALTGKEGFMANPSTINTRTNELILAHCTIGLKQTERYIIRNHFETEKGIAIQGLLPTGDVTIVKCGGECLDEYYLSTGTLTENTNYINMCRTQVRIRMNTPADYFLKNPLGNHHIMIHGNYEEALNEFLLSNACKRTE | not soluble
5 | MTIHQHPHVTDRDAHFVGGGIASLAGAAFLVRDGNMPGENIHVYEKLDVVGGAMDGAGDPDEAYLIRGGRMFNYPAYECTWDLFETIPSLEDDSRSVKAVMDEFNETHPSYAKTRLMHEGERIDAGEYGLTRQHRQSIARLLLTPEPRLGDTRIEEWFDESFLETNFWYVWATIFAFQPWHSVAEVRRYMYRFLHEFPQLHTMEGIDRTKYNQYDSMILPLRRWLEDRGVSFEYGHEVTDMDIVPSRTGRTVERLYCETDSGTETVPVEPSDLVFVTNGSMTDGSSIGGMDEAPELNETGASWELWKSIAEDNPQFGNPSVFADNVTETKWESFTVTLHNTDLFDHIVDFTNEEPGNGLVTYLGSNWLLSTVVAAQPHFANQPDDVKVFWGYALFPDREGNYVEKPMSECTGREILQELCYHLQCEERLPEILDDVTCIPAMMPFITAHFQPREPGDRPDVVPDGSNNLAFLGQYAEQPRDVVFTVEYSVRSAMTAVYEMLDLDREVPPVSKHYRKPGVIADTVRAAYRLEHHHHHH | not soluble
6 | MTINTEVFIRRNKLRRHFESEFRQINNEIREASKAAGVSSFHLKYSQALLDRAIQREIDETYVFELFHKIKDHVLEVNEFLSMPPRPDIDEDFIDGVEYRPGRLEITDGNLWLGFTVCKPNEKFKDPSLQCRMAIINSRRLPGKASKAVIKTQ | soluble
7 | MTIQQAMHQMPGKPGRDAIAEGETPRKASSDEAGCPRNDSTPTGSGLLQAALTRDNLQLAFKQVRANKGAAGVDGLGIVETAEHLKTAWPGIRAQLLAGTYRPDPVRRVLIPKPGGGERKLGIPTVTDRLIQQALLQVLQPLLDPDFSNHSYGFRPERSAHQAVLAAQQYIHSGRQIVVDVDLEQFFDCVEHDVLIARLGRKVKDRDVLRLIRAYLNSGALIEGMVMTSTRGTPQGGPLSPLLANVVLDEVDKELERRGHCFVRYADDANVYVRSPKAGQRVMALLRRLYGRLGLRVNESKSAVASAFGRKFLGFSFWQSPKGEVKRRVALKALQVFKHRIRGLTPRSGGRSLPQVVENLRPYLLGWKAYFGLSQAPGLWKSLDGWIRRRLRAIQLKQWKTGKTTYRELRKLGANSDLAAAIASDSHRTWHNSAGLIHGVLTVAWFDRLGLPRLYLEHHHHHH | not soluble
8 | MTIRSYKNLNLVRANIETESRQFIENKNYSIQSIGPMPGSRAGLRVVFTRPGVNLATVDIFYNGDGSTTIQYLTGANRSLGQELADHLFETINPAEFEQVNMVLQGFVETSVLPVLELSADESHIEFREHSRNAHTVVWKIISTSYQDELTVSLHITTGKLQIQGRPLSCYRVFTFNLAALLDLQGLEKVLIRQEDGKANIVQQEVARTYLQTVMADAYPHLHVTAEKLLVSGLCVKLAAPDLPDYCMLLYPELRTIEGVLKSKMSGLGMPVQQPAGFGTYFDKPAAHYILKPQFAATLRPEQINIISTAYTFFNVERHSLFHMETVVDASRMISDMARLMGKATRAWGIIKDLYIV | soluble
9 | MTKALFFDIDGTLVSFETHRIPSSTIEALEAAHAKGLKIFIATGRPKAIINNLSELQDRNLIDGYITMNGAYCFVGEEVIYKSAIPQEEVKAMAAFCEKKGVPCIFVEEHNISVCQPNEMVKKIFYDFLHVNVIPTVSFEEASNKEVIQMTPFITEEEEKEVLPSIPTCEIGRWYPAFADVTAKGDTKQKGIDEIIRHFGIKLEETMSFGDGGNDISMLRHAAIGVAMGQAKEDVKAAADYVTAPIDEDGISKAMKHFGII | soluble
10 | MTKHPPNRRGISFEVGAQLEARDRLKNWYPAHIEDIDYEEGKVLIHFKRWNHRYDEWFCWDSPYLRPLEKIQLRKEGLHEEDGSSEFQINEQVLACWSDCRFYPAKVTAVNKDGTYTVKFYDGVVQTVKHIHVKAFSKDQNIVGNARPKETDHKSLSSSPDKREKFKEQRKATVNVKKDKEDKPLKTEKRPKQPDKEGKLICSEKGKVSEKSLPKNEKEDKENISENDREYSGDAQKKTSQTPFHSSYCCGFKLSNFATQLEHHHHHH | soluble
11 | MTKIFIRDDNGGTEMSQDPFQEREAEKYANPIPSREFILEHLTKREKPASRDELAVELHIEGEEQLEGLRRRLRAMERDGQLVFTRRQCYALPERLDLVKGTVIGHRDGYGFLRVEGRKDDLYLSSEQMKTCIHGDQVLAQPLGADRKGRREARIVRVLVPKTSQIVGRYFTEAGVGFVVPDDSRLSFDILIPPDQIMGARMGFVVVVELTQRPTRRTKAVGKIVEVLGDNMGTGMAVDIALRTHEIPYIWPQAVEQQVAGLKEEVPEEAKAGRVDLRDLPLVTIDGEDARDFDDAVYCEKKRGGGWRLWVAIADVSYYVRPPTPLDREARNRGTSVYFPSQVIPMLPEVLSNGLCSLNPQVDRLCMVCEMTVSSKGRLTGYKFYEAVMSSHARLTYTKVWHILQGDQDLREQYAPLVKHLEELHNLYKVLDKAREERGGISFESEEAKFIFNAERRIERIEQTQRNDAHKLIEECMILANISAARFVEKAKEPALFRIHDKPSTEAITSFRSVLAELGLELPGGNKPEPRDYAELLESVADRPDAEMLQTMLLRSMKQAIYDPENRGHFGLALQSYAHFTSPIRRYPDLMLHRAIKYLLAKEQGHQGNTTETGGYHYSMEEMLQLGQHCSMAERRADEATRDVSDWLKCDFMLDQVGNVFKGVISSVTGFGFFVRLDDLFIDGLVHVSSLDNDYYRFDQVGQRLMGESSGQTYRLGDRVEVRVEAVNMDERKIDFSLISSERAPRNVGKTAREKAKKGDAGKKGGKRRQVGKKVNFEPDSAFRGEKKTKPKAAKKDARKAKKPSAKTQKIAAATKAKRAAKKKVAE | not soluble
12 | MTKKLHIKTWGCQMNEYDSSKMADLLGSTHGYELTEIAEEADVLLLNTCSIREKAQEKVFHQLGRWKALKDLNPNLIIGVGGCVASQEGAHIRERAHYVDVIFGPQTLHRLPEMINHVQGTRSPIVDISFPEIEKFDRLPEPRADGPTAFVSIMEGCNKYCTFCVVPYTRGEEVSRPCDDVLFEIAQLAAQGVREVNLLGQNVNAYRGETYDGEICSFAELLRLVAAIDGIDRVRFTTSHPIEFTDDIISVYEDTPELVSFLHLPVQSGSDRVLTMMKRRHTALEYKAIIRKLHNARPGILISSDFIIGFPGETQADFEQTMKLIADVNFDMSYSFVYSARPGTPAADMVDDVLEEEKKQRLYLLQDRITKQAMRFSRLMLGTVQRILVEGTSRKSVMELSGRTENNRVVNFEGTPDMIGKFVDVEIVDVYTNSLRGIVVRTEDQMDLRVHESPSSVIARTRKENEIGVGFYQPLEHHHHHH | soluble
13 | MTKLGLGLSGDLGAQEIVRMLDLQPHPEGGWYRQTFQDAPGPDGRAASTCIYYLLEAEQMSAWHRVDAVETWHYYAGAPISLTLSPPDGKGASAYVLGPDLRAGCRPQVIVPTLWWQTAVSLGAWTLVGCTVAPGFRFEGFEMAPPDWTPSTGLEHHHHHH | soluble
14 | MTKSQKQTKQYLRIFDQQMSLYEHYARKNSLQSKSLFILLWLYYNPQGITQKQIVEKTYSTKQVVNATLKRWNEKNYIVFLKSQTDRREKKIILSSQGQEYAASIIAPLEKMEEAAFNSLSIQEQQTMIQLTGHYYQALLSQMQLYFVQGEGEKATKEKL | not soluble
15 | MTKSQQKVSSIEKLSNQEGIISALAFDQRGALKRMMAEHQSETPTVEQIEQLKVLVSEELTQYASSILLDPEYGLPASDARNNDCGLLLAYEKTGYDVNAKGRLPDCLVEWSAKRLKEQGANAVKFLLYYDVDDTEEINIQKKAYIERIGSECVAEDIPFFLEVLTYDDNIPDNKSAEFAKVKPRKVNEAMKLFSEDCFNVDVLKVEVPVNMNFVEGFSEGEVVYTKEEAAQHFRDQDAATHLPYIYLSAGVSAELFQDTLKFAHDSGAQFNGVLCGRATWSGAVKVYIEEGEQAAREWLRTVGFKNIDDLNTVLKTTATSWKNK | soluble
16 | MTKVLFITANPNSAEGSFGMAVGEAFIEAYKNEHPQDEVVTIDLFNTTVPAIDADVFAAWGKFAAGEGFEALTEVQQQKVAAMNTNLETFMNADRYVFVTPMWNFSYPPVVKAYLDNVAIAGKTFKYTENGPVGLLEGKKALHIQATGGVYSEGAYAAVDFGRNHLKTVLGFVGVNDTEYIAVEGMNANPEKAQEIKEAAIANARELAKRF | not soluble
